This assay addresses HA-FBW7 (UniProt Q8VBV4). Description: FLAG IP, HA immunoblot. The conditions noted are these: reference: wild type. Background: Immunoblotting shows a protein as a band on a membrane.

As for “KLF2 (3xFLAG-KLF2) (from UniProt Q60843) 2A C (T243A/S247A)”, the “binding against the reference” value (sites T243,S247) was “weaker”.
With “KLF2 (3xFLAG-KLF2) (from UniProt Q60843) 2A N (T171A/S175A)”, the “binding against the reference” value (sites T171,S175) is “weaker”.

The record behind these values is article PMC8718266.
